Experimental data from PMC5062617, “Nop9 is a PUF-like protein that prevents premature cleavage to correctly process pre-18S rRNA”.
Substitutions are numbered along the chain they refer to. In names and notes the source's numbering stands.

How the values were obtained:
Assay in all cases: EMSA; EMSA: 10 mM HEPES, 150 mM NaCl, 0.01% Tween-20, 0.1 mg/ml BSA, 1 mM TCEP, 4 °C, 40 min; RNA <50 pM
[1] = target: T1, Nop9 (46-645) (Saccharomyces cerevisiae, UniProt P47077 46-645); conditions: protein: recombinant, tags: none (SUMO cleaved), hairpin
T1 sequence: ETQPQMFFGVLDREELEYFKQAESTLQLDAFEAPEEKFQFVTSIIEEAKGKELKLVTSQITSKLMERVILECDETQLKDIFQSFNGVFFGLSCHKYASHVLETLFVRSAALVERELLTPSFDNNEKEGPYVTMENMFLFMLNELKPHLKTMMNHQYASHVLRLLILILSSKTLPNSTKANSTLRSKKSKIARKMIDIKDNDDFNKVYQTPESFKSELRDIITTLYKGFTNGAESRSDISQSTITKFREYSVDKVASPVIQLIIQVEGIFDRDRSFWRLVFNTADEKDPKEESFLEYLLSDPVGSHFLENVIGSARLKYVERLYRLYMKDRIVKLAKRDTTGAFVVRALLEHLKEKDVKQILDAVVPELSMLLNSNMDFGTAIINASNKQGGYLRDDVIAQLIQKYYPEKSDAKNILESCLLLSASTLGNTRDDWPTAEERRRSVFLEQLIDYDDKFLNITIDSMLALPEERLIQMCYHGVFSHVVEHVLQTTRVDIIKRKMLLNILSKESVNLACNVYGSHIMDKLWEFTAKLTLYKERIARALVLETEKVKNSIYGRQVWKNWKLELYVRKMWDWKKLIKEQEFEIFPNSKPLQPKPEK

[2] = target: T2, Nop9 full-length (Saccharomyces cerevisiae, UniProt P47077 1-666); conditions: protein: recombinant; tags: none (SUMO cleaved); label: 5' 32P; hairpin, 5' flank
T2 sequence: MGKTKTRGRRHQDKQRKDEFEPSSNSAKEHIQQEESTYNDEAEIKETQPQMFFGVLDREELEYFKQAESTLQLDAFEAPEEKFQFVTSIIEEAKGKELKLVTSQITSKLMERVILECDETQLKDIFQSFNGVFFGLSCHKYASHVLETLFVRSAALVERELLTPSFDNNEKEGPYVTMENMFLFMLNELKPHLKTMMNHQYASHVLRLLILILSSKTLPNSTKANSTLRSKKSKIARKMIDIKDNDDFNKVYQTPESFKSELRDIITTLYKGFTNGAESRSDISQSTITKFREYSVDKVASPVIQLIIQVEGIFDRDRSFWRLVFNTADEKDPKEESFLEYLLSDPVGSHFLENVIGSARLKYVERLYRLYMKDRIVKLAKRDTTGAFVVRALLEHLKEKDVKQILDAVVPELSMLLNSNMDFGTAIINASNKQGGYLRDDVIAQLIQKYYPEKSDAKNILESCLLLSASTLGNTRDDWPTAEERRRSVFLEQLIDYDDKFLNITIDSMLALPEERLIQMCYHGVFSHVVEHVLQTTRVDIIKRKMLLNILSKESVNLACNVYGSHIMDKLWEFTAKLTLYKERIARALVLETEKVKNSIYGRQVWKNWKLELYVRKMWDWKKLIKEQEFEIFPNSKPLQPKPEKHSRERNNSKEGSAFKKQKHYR

[3] = target: T1, Nop9 (46-645); conditions: protein: recombinant; tags: none (SUMO cleaved); label: 5' 32P; hairpin, 5' flank
[4] = target: T1, Nop9 (46-645); conditions: protein: recombinant; tags: none (SUMO cleaved); label: 5' 32P; hairpin, 5' flank; remark: listed apart in the source

B1: Subdomain A Δ5'1-12, Δ3' (structured_RNA)
RNA: GGAAUUUUGAAAAUGGAUUUUUUUGUUUUAUAGGACAAUUAAAACCGUUUCAA
B1 showed a Kd ([1]; label: 5' 32P, 5' flank) of 18.2 ± 1.9 nM.

B2: ITS1 Subdomain C (77-140) (structured_RNA)
RNA: GGAGAGAUGGAGAGUCCAGCCGGGCCUGCGCUUAAGUGCGCGGUCUUGCUAGGCUUGUAAGUUUCU
In the case of B2, the Kd ([1]; label: 5' 32P) is reported as 74.4 ± 4.1 nM.

B3: ITS1 Subdomain B (39-77_140-183) (structured_RNA)
RNA: GGUGGCAAGAGCAUGAGAGCUUUUACUGGGCAAGAAGACAAUUUCUUGCUAUUCCAAACGGUGAGAGAUUUCUGUGCUUUUGUUA
With B3 the Kd ([1]; label: 5' 32P) was 105 ± 2.9 nM.

B4: Subdomain A Δ3' (structured_RNA)
RNA: GGAAGAAAUUUAAUAAUUUUGAAAAUGGAUUUUUUUGUUUUAUAGGACAAUUAAAACCGUUUCAA
B4 gave a Kd ([1]; label: 5' 32P, 5' flank) of 15.7 ± 2.6 nM.

Binder GGUUUGAAAAUGGAUUUUUUUGUUUUAUAGGACAAUUAAAACCGUUUCAA (structured_RNA) [Subdomain A Δ5'1-15, Δ3'] has a Kd ([1]; label: 5' 32P) of 346 ± 40 nM.

B5: Subdomain A Δ5'1-6, Δ3' (structured_RNA)
RNA: GGUUUAAUAAUUUUGAAAAUGGAUUUUUUUGUUUUAUAGGACAAUUAAAACCGUUUCAA
Binder B5 has a Kd ([1]; label: 5' 32P, 5' flank) of 11.8 ± 0.4 nM and a Kd [2] of 10.1 ± 1 nM.

B6: U16A (structured_RNA)
RNA: B5 RNA with U12A
For B6, the Kd ([1]; label: 5' 32P, 5' flank) was 62.3 ± 4.9 nM.

B7: UUU(7-9)GGG, A Δ5'1-6, Δ3' (structured_RNA)
RNA: B5 RNA with U3G, U4G, U5G
Work on B7 yielded a Kd ([1]; label: 5' 32P, 5' flank) of 6.6 ± 0.3 nM.

B8: nt 20-22 mutant, pairing kept (structured_RNA)
RNA: B5 RNA with A16C, A17C, A18C, U54G, U55G, U56G
B8: binds ([1]; label: 5' 32P, 5' flank).

B9: II: U16G (structured_RNA)
RNA: B5 RNA with U12G
Work on B9 yielded a Kd ([1]; label: 5' 32P, 5' flank) of 47.7 ± 1.8 nM.

B10: I: UUU(16-18)GGC, AA(205-206)GC (structured_RNA)
RNA: B5 RNA with U12G, U13G, U14C, A58G, A59C
Work on B10 yielded a Kd ([1]; label: 5' 32P, 5' flank) of 103 ± 12 nM.

B11: IV: stem base strands reversed (UUG17-19AAC, CAA204-206GUU) (structured_RNA)
RNA: B5 RNA with U13A, U14A, G15C, C57G, A58U, A59U
B11: binds ([1]; label: 5' 32P, 5' flank).

B12: III: UU(17-18)GC, AA(205-206)GC (structured_RNA)
RNA: B5 RNA with U13G, U14C, A58G, A59C
With B12 the binding signal [3] was ~4 fold Kd vs A Δ5'1-6,Δ3'.

B13: AAU(13-15)CCC, A Δ5'1-6, Δ3' (structured_RNA)
RNA: B5 RNA with A9C, A10C, U11C
B13 showed a Kd ([1]; label: 5' 32P, 5' flank) of 27.6 ± 3.7 nM.

B14: AAU(10-12)CCC, A Δ5'1-6, Δ3' (structured_RNA)
RNA: B5 RNA with A6C, A7C, U8C
B14 showed a Kd ([1]; label: 5' 32P, 5' flank) of 8.5 ± 0.6 nM.

B15: nt 27-30 mutant, pairing kept (structured_RNA)
RNA: GGUUUAAUAAUUUUGAAAAUGGGCGCUUUUGUUUUAUAGGACAAUUGCGCCCGUUUCAA
B15: binds ([1]; label: 5' 32P, 5' flank).

B16: ITS1 Subdomain A (1-38_184-212) (structured_RNA)
RNA: GGAAGAAAUUUAAUAAUUUUGAAAAUGGAUUUUUUUGUUUUAUAGGACAAUUAAAACCGUUUCAAUACAAC
With B16 the Kd ([1]; label: 5' 32P (EMSA), 5' and 3' single-stranded flanks) was 2.4 ± 0.3 nM.

B17: V: U-G pairs at stem base (structured_RNA)
RNA: UUUAAUAAUUUUGAAAAUGGAUUUUUUUGUUUUAUAGGACAAUUAAAACCGUUUCGG
For B17, the binding signal [4] was ~3 fold Kd vs A Δ5'1-6,Δ3'.
